Measurements reported in paper PMC7218058 (2020).
One block for each binder: values may come before it.

Columns and labels:
[1] = molecular target: IgG4 allotypes (anti-RhD); test: SPR
[2] = molecular target: IgG2 allotypes (anti-RhD); test: SPR

- Kd [1]: > 1 µM
B1: human FcγRIIa 131His, biotinylated (receptor)
chain: QAAAPPKAVLKLEPPWINVLQEDSVTLTCQGARSPESDSIQWFHNGNLIPTHTQPSYRFKANNNDSGEYTCQTGQTSLSDPVHLTVLSEWLVLQTPHLEFQEGETIMLRCHSWKDKPLVKVTFFQNGKSQKFSHLDPTFSIPQANHSHSGDYHCTGNIGYTLFSSKPVTITVQVPSMGSSSPMG
modifications: biotin

- Kd [2]: > 1 µM
B2: human FcγRIa (his tag) (receptor)
chain: QVDTTKAVITLQPPWVSVFQEETVTLHCEVLHLPGSSSTQWFLNGTATQTSTPSYRITSASVNDSGEYRCQRGLSGRSDPIQLEIHRGWLLLQVSSRVFTEGEPLALRCHAWKDKLVYNVLYYRNGKAFKFFHWNSNLTILKTNISHNGTYHCSGMGKHRYTSAGISVTVKELFPAPVLNASVTSPLLEGNLVTLSCETKLLLQRPGLQLYFSFYMGSKTLRGRNTSSEYQILTARREDSGLYWCEAATEDGNVLKRSPELELQVLGLQLPTPVWFH
